Results on five molecules are retold here after patent US12698507B2, “Methods and compositions for conferring and/or enhancing herbicide tolerance using protoporphyrinogen IX oxidase of various cyanobacteria or variant thereof” (FarmHannong Co., Ltd., priority 2019, dated 2026).

Sequences and labels used below:
B1: CyPPO19 R89A + I408W + F360V: variant of CyPPO19 PPO protein (SEQ ID NO: 1) (protein)
chain: MSEVDVAIVGGGLSGLSLAWRLQQSAPQYSVVLLEASDRLGGNITTQTAEGFVWELGPNSFAPTPALLQLIAEVGLQSELIRGDRHLPAYIYWRGQLYPLQPTRPLALATSNLLSPWGKVRAALGALGFVPPYLGSGDESVNSFFRRHLGQEVAERLVAPFVSGVYAGDPQQLSAAAAFRRIAQLEKLGGGLIAGALHLRRQQAPKPKPPTSVQMRPGELGSFKEGLAALPRAIAQQLKAPIHLQTPVQEITPDPKGGYLLRSGEQTWRARSVVLATPAYQTAELVAPFQPAIARVLATIPYPTVACVVLAYPAGLGRSVRPGFGVLIPRSQGIRTLGTIWSSCLFPQRTPAGWQVFTSVIGGATDPDLASLSEEAIVQQVQQDLNRLLDLPAAKARLLGMKVWRRAWPQYMVGYPEQWQQVTHALSQTPGLFLCSNYAEGVALGDRVEHGNRTAAAVAAYLSGGQP
modifications: Synthetic_PPO of Thermosynechococcus elongatus PKUAC-SCTE542 (comprising GenBank No. CP032152.1)
B2: CyPPO19 V165S + A167C + F360L: variant of CyPPO19 PPO protein (SEQ ID NO: 1) (protein)
chain: MSEVDVAIVGGGLSGLSLAWRLQQSAPQYSVVLLEASDRLGGNITTQTAEGFVWELGPNSFAPTPALLQLIAEVGLQSELIRGDRHLPRYIYWRGQLYPLQPTRPLALATSNLLSPWGKVRAALGALGFVPPYLGSGDESVNSFFRRHLGQEVAERLVAPFVSGSYCGDPQQLSAAAAFRRIAQLEKLGGGLIAGALHLRRQQAPKPKPPTSVQMRPGELGSFKEGLAALPRAIAQQLKAPIHLQTPVQEITPDPKGGYLLRSGEQTWRARSVVLATPAYQTAELVAPFQPAIARVLATIPYPTVACVVLAYPAGLGRSVRPGFGVLIPRSQGIRTLGTIWSSCLFPQRTPAGWQVFTSLIGGATDPDLASLSEEAIVQQVQQDLNRLLDLPAAKARLLGMKVWRRAIPQYMVGYPEQWQQVTHALSQTPGLFLCSNYAEGVALGDRVEHGNRTAAAVAAYLSGGQP
modifications: Synthetic_PPO of Thermosynechococcus elongatus PKUAC-SCTE542 (comprising GenBank No. CP032152.1)
B3: CyPPO19 V165S + A167I + F360M: variant of CyPPO19 PPO protein (SEQ ID NO: 1) (protein)
chain: MSEVDVAIVGGGLSGLSLAWRLQQSAPQYSVVLLEASDRLGGNITTQTAEGFVWELGPNSFAPTPALLQLIAEVGLQSELIRGDRHLPRYIYWRGQLYPLQPTRPLALATSNLLSPWGKVRAALGALGFVPPYLGSGDESVNSFFRRHLGQEVAERLVAPFVSGSYIGDPQQLSAAAAFRRIAQLEKLGGGLIAGALHLRRQQAPKPKPPTSVQMRPGELGSFKEGLAALPRAIAQQLKAPIHLQTPVQEITPDPKGGYLLRSGEQTWRARSVVLATPAYQTAELVAPFQPAIARVLATIPYPTVACVVLAYPAGLGRSVRPGFGVLIPRSQGIRTLGTIWSSCLFPQRTPAGWQVFTSMIGGATDPDLASLSEEAIVQQVQQDLNRLLDLPAAKARLLGMKVWRRAIPQYMVGYPEQWQQVTHALSQTPGLFLCSNYAEGVALGDRVEHGNRTAAAVAAYLSGGQP
modifications: Synthetic_PPO of Thermosynechococcus elongatus PKUAC-SCTE542 (comprising GenBank No. CP032152.1)
B4: CyPPO19 V165C + A167L + F360T: variant of CyPPO19 PPO protein (SEQ ID NO: 1) (protein)
chain: MSEVDVAIVGGGLSGLSLAWRLQQSAPQYSVVLLEASDRLGGNITTQTAEGFVWELGPNSFAPTPALLQLIAEVGLQSELIRGDRHLPRYIYWRGQLYPLQPTRPLALATSNLLSPWGKVRAALGALGFVPPYLGSGDESVNSFFRRHLGQEVAERLVAPFVSGCYLGDPQQLSAAAAFRRIAQLEKLGGGLIAGALHLRRQQAPKPKPPTSVQMRPGELGSFKEGLAALPRAIAQQLKAPIHLQTPVQEITPDPKGGYLLRSGEQTWRARSVVLATPAYQTAELVAPFQPAIARVLATIPYPTVACVVLAYPAGLGRSVRPGFGVLIPRSQGIRTLGTIWSSCLFPQRTPAGWQVFTSTIGGATDPDLASLSEEAIVQQVQQDLNRLLDLPAAKARLLGMKVWRRAIPQYMVGYPEQWQQVTHALSQTPGLFLCSNYAEGVALGDRVEHGNRTAAAVAAYLSGGQP
modifications: Synthetic_PPO of Thermosynechococcus elongatus PKUAC-SCTE542 (comprising GenBank No. CP032152.1)
B5: CyPPO19 R89A + I408R + F360L: variant of CyPPO19 PPO protein (SEQ ID NO: 1) (protein)
chain: MSEVDVAIVGGGLSGLSLAWRLQQSAPQYSVVLLEASDRLGGNITTQTAEGFVWELGPNSFAPTPALLQLIAEVGLQSELIRGDRHLPAYIYWRGQLYPLQPTRPLALATSNLLSPWGKVRAALGALGFVPPYLGSGDESVNSFFRRHLGQEVAERLVAPFVSGVYAGDPQQLSAAAAFRRIAQLEKLGGGLIAGALHLRRQQAPKPKPPTSVQMRPGELGSFKEGLAALPRAIAQQLKAPIHLQTPVQEITPDPKGGYLLRSGEQTWRARSVVLATPAYQTAELVAPFQPAIARVLATIPYPTVACVVLAYPAGLGRSVRPGFGVLIPRSQGIRTLGTIWSSCLFPQRTPAGWQVFTSLIGGATDPDLASLSEEAIVQQVQQDLNRLLDLPAAKARLLGMKVWRRARPQYMVGYPEQWQQVTHALSQTPGLFLCSNYAEGVALGDRVEHGNRTAAAVAAYLSGGQP
modifications: Synthetic_PPO of Thermosynechococcus elongatus PKUAC-SCTE542 (comprising GenBank No. CP032152.1)

This assay has as its system PPO-deficient BT3 E. coli (ΔPPO). The assay is described as follows: PPO-inhibiting herbicide tolerance test of PPO variants in E. coli (growth on herbicide-containing LB agar). Format: cell-based. Particulars: CyPPO19 variants in BT3 (ΔPPO) E. coli; LB agar with 0 to 2,000 μM herbicide, 37° C., dark, 16-20 hours. The text has this: To enhance the PPO-inhibiting herbicide resistance of CyPPO19 and CyPPO18, PPO variant genes of the above example 2 were constructed. They were transformed to BT3 (ΔPPO) strain which is deficient of PPO activity and cultured in LB media with PPO-inhibiting herbicide, thereby examining whether growth of transformed BT3 was not inhibited.
BT3 competent cells were transformed with the pET303-CyPPO19 (wild type), pET303-CyPPO18 (wild type) plasmids, and those with a mutation(s) constructed (refer to example 2) via heat shock method, and were cultured in LB agar media containing ampicillin.
Single colony transformed with each CyPPO gene was cultured in 3 mL of LB broth (LPSS) containing ampicillin for more than 12 hours, and then was subcultured in LB broth until absorbance (OD600) reached 0.5 to 1. Then, it was diluted with LB broth to OD600=0.5. Again, the diluted solution was serially diluted 4 times by a factor of one tenth.
The LB agar media (LB 25 g/L, Bacto agar 12 g/L) containing ampicillin (100 μg/mL) and 0 to 2,000 μM of various herbicides were prepared. Herbicide solution stocks were all prepared in DMSO.
Then, 10 μL of each diluted solution of E. coli was dropped on the plate and cultured at 37° C. under dark for 16-20 hours. PPO-inhibiting herbicide resistance was evaluated with the extent of E. coli growth containing each gene was observed.
The extent of herbicide resistance was evaluated by the relative growth of variants to that of wild type, and listed in Tables 9 and 10 and FIGS. 3 to 32.
In Tables 9 and 10, the tolerance level of variants showing equivalent resistance to wild type was presented as ‘−’, and was done as ‘+’ per each 10-fold resistance until ‘+++++’ as maximal resistance.
FIGS. 3 to 30 and FIGS. 31 and 32 show the transformed E. coli growth result of CyPPO19 WT and its variants and CyPPO18 WT and its variants, respectively. The concentrations of herbicides were written above the photographs of tolerance test. A 10-fold dilution series of spots were shown from OD600=0.5 of the leftmost spot to OD600=0.00005 of the rightmost one.
B1: the “tolerance level relative to wild type, Carfentrazone” value was “+ (‘+’ per each 10-fold resistance)”; the “tolerance level relative to wild type, Flumioxazin” value is reported as “+++++ (until ‘+++++’ as maximal resistance)”; the “tolerance level relative to wild type, Fomesafen” value was “+++++ (until ‘+++++’ as maximal resistance)”; the “tolerance level relative to wild type, Oxyfluorfen” value is recorded as “+++ (‘+’ per each 10-fold resistance)”. In addition, the “tolerance level relative to wild type, Saflufenacil” value was “+++++ (until ‘+++++’ as maximal resistance)”; the “tolerance level relative to wild type, Sulfentrazone” value is listed as “+++++ (until ‘+++++’ as maximal resistance)”; the “tolerance level relative to wild type, Tiafenacil” value is “+++++ (until ‘+++++’ as maximal resistance)”.
Consider B2, for which the “tolerance level relative to wild type, Carfentrazone” value is on record as “+ (‘+’ per each 10-fold resistance)”; the “tolerance level relative to wild type, Flumioxazin” value is on record as “++++ (‘+’ per each 10-fold resistance)”; the “tolerance level relative to wild type, Fomesafen” value is recorded as “+ (‘+’ per each 10-fold resistance)”; the “tolerance level relative to wild type, Oxyfluorfen” value is recorded as “+ (‘+’ per each 10-fold resistance)”. Further, the “tolerance level relative to wild type, Saflufenacil” value is reported as “+++ (‘+’ per each 10-fold resistance)”; the “tolerance level relative to wild type, Sulfentrazone” value is listed as “++ (‘+’ per each 10-fold resistance)”; the “tolerance level relative to wild type, Tiafenacil” value was “++++ (‘+’ per each 10-fold resistance)”.
B3: the “tolerance level relative to wild type, Carfentrazone” value is listed as “+ (‘+’ per each 10-fold resistance)”; the “tolerance level relative to wild type, Flumioxazin” value is on record as “+++++ (until ‘+++++’ as maximal resistance)”; the “tolerance level relative to wild type, Fomesafen” value was “++ (‘+’ per each 10-fold resistance)”; the “tolerance level relative to wild type, Oxyfluorfen” value was “++ (‘+’ per each 10-fold resistance)”. Besides, the “tolerance level relative to wild type, Saflufenacil” value is listed as “++++ (‘+’ per each 10-fold resistance)”; the “tolerance level relative to wild type, Sulfentrazone” value is listed as “+++ (‘+’ per each 10-fold resistance)”; the “tolerance level relative to wild type, Tiafenacil” value was “+++++ (until ‘+++++’ as maximal resistance)”.
Consider B4, for which the “tolerance level relative to wild type, Carfentrazone” value is recorded as “+ (‘+’ per each 10-fold resistance)”; the “tolerance level relative to wild type, Flumioxazin” value is on record as “+++ (‘+’ per each 10-fold resistance)”; the “tolerance level relative to wild type, Fomesafen” value was “++ (‘+’ per each 10-fold resistance)”; the “tolerance level relative to wild type, Oxyfluorfen” value is given as “+ (‘+’ per each 10-fold resistance)”. Moreover, the “tolerance level relative to wild type, Saflufenacil” value is reported as “+++ (‘+’ per each 10-fold resistance)”; the “tolerance level relative to wild type, Sulfentrazone” value was “+++ (‘+’ per each 10-fold resistance)”; the “tolerance level relative to wild type, Tiafenacil” value is “++++ (‘+’ per each 10-fold resistance)”.
Consider B5, for which the “tolerance level relative to wild type, Carfentrazone” value is “+ (‘+’ per each 10-fold resistance)”; the “tolerance level relative to wild type, Flumioxazin” value is on record as “+++ (‘+’ per each 10-fold resistance)”; the “tolerance level relative to wild type, Fomesafen” value is on record as “+ (‘+’ per each 10-fold resistance)”; the “tolerance level relative to wild type, Oxyfluorfen” value was “+ (‘+’ per each 10-fold resistance)”. For the same molecule, the “tolerance level relative to wild type, Saflufenacil” value is “+++ (‘+’ per each 10-fold resistance)”; the “tolerance level relative to wild type, Sulfentrazone” value is “++ (‘+’ per each 10-fold resistance)”; the “tolerance level relative to wild type, Tiafenacil” value is on record as “+++ (‘+’ per each 10-fold resistance)”.
